Laboratory results taken from PMC3322289.
Read-outs that look alike come from different tables or passages of the source.

Legend:
Angiotensin II, P01019 [1] = experiment: radioligand
Angiotensin II, P01019 [2] = experiment: radioligand; remark: listed apart in the source

Sequence of Angiotensin II, P01019 (P01019 whole entry, looked up): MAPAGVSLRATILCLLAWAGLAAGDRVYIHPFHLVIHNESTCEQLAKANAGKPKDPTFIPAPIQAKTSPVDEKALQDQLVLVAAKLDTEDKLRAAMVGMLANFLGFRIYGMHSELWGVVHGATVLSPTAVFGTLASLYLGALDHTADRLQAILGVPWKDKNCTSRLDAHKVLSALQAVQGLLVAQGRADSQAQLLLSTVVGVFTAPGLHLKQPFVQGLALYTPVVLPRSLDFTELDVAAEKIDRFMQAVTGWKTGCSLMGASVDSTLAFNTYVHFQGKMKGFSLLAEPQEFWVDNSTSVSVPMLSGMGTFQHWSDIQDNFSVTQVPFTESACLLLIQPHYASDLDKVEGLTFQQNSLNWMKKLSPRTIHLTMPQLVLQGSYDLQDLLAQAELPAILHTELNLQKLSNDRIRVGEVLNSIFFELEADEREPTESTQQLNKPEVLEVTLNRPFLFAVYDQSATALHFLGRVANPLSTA

B1: Angiotensin II type 1 receptor (AT1R), P25095 (protein)
chain: MALNSSAEDGIKRIQDDCPKAGRHSYIFVMIPTLYSIIFVVGIFGNSLVVIVIYFYMKLKTVASVFLLNLALADLCFLLTLPLWAVYTAMEYRWPFGNHLCKIASASVSFNLYASVFLLTCLSIDRYLAIVHPMKSRLRRTMLVAKVTCIIIWLMAGLASLPAVIHRNVYFIENTNITVCAFHYESRNSTLPIGLGLTKNILGFLFPFLIILTSYTLIWKALKKAYEIQKNKPRNDDIFRIIMAIVLFFFFSWVPHQIFTFLDVLIQLGVIHDCKISDIVDTAMPITICIAYFNNCLNPLFYGFLGKKFKKYFLQLLKYIPPKAKSHSSLSTKMSTLSYRPSDNMSSSAKKPASCFEVE
- Kd (Angiotensin II, P01019 [1]): 3.57 nM
- Kd (Angiotensin II, P01019 [2]): 3.32 nM
